Test results taken from paper PMC12377726 (Proceedings of the National Academy of Sciences of the …, 2025).

Biological target: eOD-GT8 (engineered outer domain germline-targeting version 8), monomer (HIV-1 gp120 engineered outer domain, …)
Assay: SPR
Conditions: both partners purified

B1: G001_gp1_V10_VRC01c_179 (antibody, V domains shown)
VH: QVQLVQSGADVKKPGASVKVSCKASGYTFTDYYMHWVRQAPGQGLEWMGWINPNSGGTNYAQKFQDRVTMTRDTSVSTAYMEVSGLRSDDTAVYYCARIKLCNGGSCNWSLGYWGQGSLVTVSS
VL: DIQMTQSPSSLSASVGDRVTITCQASQDISNYLNWYQQKPGKAPKLLIYGASNLETGVPSRFSGSGSGTDFTFTISSLQPEDIATYYCQQYEFFGPGTKVDIK
notes: also called G001-179
Kd: 130 pM
